± gives the standard error. Variants at the floor of the assay were thinned out.
B1: glmS ribozyme (parent)
chain: AUAAAAGCGCCAGAACUACAGAAAUGUAGUUGACGAGGAGGAGGUUUAUCGAAUUUUCGGCGGAUGCCUCCAAA

Variants of: B1
Assay: self-cleavage kobs at 640 uM GlcN6P; higher = faster cleavage; RNA array
Conditions: with glucosamine-6-phosphate
Procedure, shortened: (§1)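 In situ transcription by E. coli RNA polymerase produced barcoded ribozyme variants on sequenced MiSeq chips, and a hybridised Cy3 probe tracked them at 37 °C. Glucosamine-6-phosphate was flowed in at 40 μM to 10 mM in HEPES/KCl/Mg(OAc)2 buffer. kcat and KM were taken from weighted Michaelis–Menten fits of kobs values from exponential decay fits.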

Point of comparison: AUAAAAGUGCCAGAACUACAGAAAUGUAGUUGACGAGGAGGAGGUUUAUCGAAUUUUCGGCAGAUGCCUUCAAA [C8U G62A C70U], “self-cleavage kobs at 640 uM GlcN6P” value 6.07e-05 ± 2.6e-05 s⁻¹. Against it:
- AUAAAAGUGCCAUUACUACAGAAAUGUAGUUGACGAGGAGGAGGUUUAUCGAAUUUUCGGCGGAUGCCUCCAAA [C8U G13U A14U] — lower, < 1e-05 s⁻¹
- AUAAAAGCACCAGAACUACAGAAAUGUAGUUGACGAAGAGGAGGUUUAUCGAAUUGUCGGCGGAUGCCUCCAAA [G9A G37A U56G] — lower, < 1e-05 s⁻¹
- AUAAAAGCCCCAGAACUACAGAAAUGUAAUUAACGAGGAGGAGGUUUAUCGAAUUUUCGGCGGAUGCCUCCAAA [G9C G29A G32A] — lower, < 1e-05 s⁻¹
- AUAAAAGUGCCAGAACUACAGAAAUGUAGUUGACGAGGAGGAGGUUGAUCGAAUUUUCGGCGGAUGCCUCCAAA [C8U U47G] — lower, < 1e-05 s⁻¹
- AUAAAAGUGCCAGAACUACAGAAAUGUAGUUGACGAGGAGGAGGUUCAUCGAAUUUUCGGCGGAUGGCUCCAAA [C8U U47C C67G] — lower, < 1e-05 s⁻¹
- AUAAAAGCCCCAGAACUACAGAAAUGUAGUUGACGAGGAGGAGGUUUAUCGAAUUUUCGGCGGUUCCCUUUAAA [G9C A64U G66C C70U C71U] — lower, < 1e-05 s⁻¹
- AUAAAAGCCCCAGAGCUACAGAAAUGUAGUUGACGAGCAGGAGGUUUAUCGAAUUUUCGACGGAUGCCUCCAAA [G9C A15G G38C G60A] — lower, < 1e-05 s⁻¹
- AUAAAAGUGCCAGAACUACAGAAAUGUAGUUGACGAGGAGGAGGUUUAUCGAAUUUUCGGCGGAUCCCUCGAAA [C8U G66C C71G] — lower, < 1e-05 s⁻¹
- AUAAAAGUGCCAAAACUACAGAAAUGUAGUUGACGAGGAGGAGGUAUAUCCAAUUUUCAGCGGAUGCCUCCAAA [C8U G13A U46A G51C G59A] — lower, < 1e-05 s⁻¹
- AUAAAAGCAGCAGAACUACAGAAAUGUAUUUGACGAGGAGGAGGUUUAUCGAAUUUUCGGCAGAUGCCUCCAAA [G9A C10G G29U G62A] — lower, < 1e-05 s⁻¹
- AUAAAAGUGGCAGAACUACAGAAAUGUAGUUGACGAGGAGGAGGUUUAUCGAAUUUUCGGCGGAUGGCUCCAAA [C8U C10G C67G] — 11-fold higher, 0.000675 ± 0.00032 s⁻¹
- AUAAAAGCACCAGAACUACAGAAAUGUAGGUGACGAGGUGGAGGUUUAUCGAAUUUUCGGCGGAUGCCUCCAAA [G9A U30G A39U] — lower, < 1e-05 s⁻¹
- AUAAAAGUGCCAUAACUACAGAAAUGUAGUUGACGAGGAGGAGGUUCAUCCAAUUUUCGGCGGAUGCCUCCAAA [C8U G13U U47C G51C] — lower, < 1e-05 s⁻¹
- AUAAAAGCCCCAGAAGUACAGAAAUGUAGUUGACGAGUAGGAGGUUUAUCGAAUUUUCGGCGGAAGCCUCCAAA [G9C C16G G38U U65A] — lower, < 1e-05 s⁻¹
- AUAAAAGCCUCAUAACUACAGAAAUGUAGUUGACGAGGAGGAGGUUUAUCGAAUUUUCGGCGGAUGCCUCCAAA [G9C C10U G13U] — lower, < 1e-05 s⁻¹
- AUAAAAGCCCCGGAACUACAGAAAUGUAAUUGACGAGGAGGAGGUUUAUCGAAUUUUCGGCGGAUGCCUCCAAA [G9C A12G G29A] — lower, < 1e-05 s⁻¹
- AUAAAAGCCCCAGAACUACAGAAAUGUAGUUGAUGAGGAGGAGGUUUACCGAAUUUUCGGCGGAGGCCUCCAAA [G9C C34U U49C U65G] — lower, < 1e-05 s⁻¹
- AUAAAAGUGUCAGUACUACAGAAAUGUAGUUGACGAGGAGGAAGUUUAUCGAAUUUUCGGCGGAUGCCUCCAAA [C8U C10U A14U G43A] — lower, < 1e-05 s⁻¹
- AUAAAAGUGCCAGAACUACAGAAAUGUAGUUGACGAGGAGGAGGUUUAUCGAACGUUCGGCGGAUGCCUCCAAA [C8U U54C U55G] — lower, < 1e-05 s⁻¹
- AUAAAAGUGCCAGAACUACAGAAAUGUAGUUGACGAGGAGGAGGAUUUUUGAAUUUUCGGCGGAUGCCUCCAAA [C8U U45A A48U C50U] — lower, < 1e-05 s⁻¹
- AUAAAAGCCCCAGAACUACAGAAAUGUAGUUGUGGAGGAGGAGGUUUAUCGAAUUAUCGGCGGAUGCCUCCAAA [G9C A33U C34G U56A] — lower, < 1e-05 s⁻¹
- AUAAAAGCCCCAGAACUACAGAAAUGUAGUUGACGACGAGGAGGUUUAUCGAAUUUUCGGCGGAUGCCUGCAAA [G9C G37C C70G] — lower, < 1e-05 s⁻¹
- AUAAAAGUGCCAGAACUACAGAAAUGUAGUUGACAAGGAGGAGGUUUAUCGAAUUUUCGCCGGAGGCCUCCAAA [C8U G35A G60C U65G] — lower, < 1e-05 s⁻¹
- AUAAAAGCACCAGAACUACAGAAAUGUAGUUGACGAGGAGGAGGUUUAUCUCAUUUUCGGCGGAUGCCUCCAAA [G9A G51U A52C] — lower, < 1e-05 s⁻¹
- AUAAAAGCACCAGAACUACAGAAAUGUAGUUGACUAGGAGGAGGUUAAUCGAAUUUUCGGCGGAUGCCUUCAAA [G9A G35U U47A C70U] — lower, < 1e-05 s⁻¹
- AUAAAAGCACCAGCACUACAGAAAUGUAGUUGACGGCGUGGAGGUUUAUCGAAUUUUCGGCGGAUGCCUCCAAA [G9A A14C A36G G37C A39U] — lower, < 1e-05 s⁻¹
- AUAAAAGCACCAGAACUACAGAAAUGUAGUUGACGAGGAGGAGCUUUAUCGAAUUUUCGGCGGAUGCUACCAAA [G9A G44C C68U U69A] — lower, < 1e-05 s⁻¹

Variants of: B1
Assay: self-cleavage kobs at 2500 uM GlcN6P; higher = faster cleavage; RNA array
Conditions: with glucosamine-6-phosphate
Procedure, shortened: as §1

AUAAAAGCCCCAGAACUACAGAAAUGUAAUUAACGAGGAGGAGGUUUAUCGAAUUUUCGGCGGAUGCCUCCAAA [G9C G29A G32A] and AUAAAAGCCCCAGAGCUACAGAAAUGUAGUUGACGAGCAGGAGGUUUAUCGAAUUUUCGACGGAUGCCUCCAAA [G9C A15G G38C G60A] cannot be ordered by “self-cleavage kobs at 2500 uM GlcN6P” value: less than 1e-05 s⁻¹ for the first, less than 1e-05 s⁻¹ for the second.

AUAAAAGCCCCAGAAGUACAGAAAUGUAGUUGACGAGUAGGAGGUUUAUCGAAUUUUCGGCGGAAGCCUCCAAA [G9C C16G G38U U65A] and AUAAAAGUGUCAGUACUACAGAAAUGUAGUUGACGAGGAGGAAGUUUAUCGAAUUUUCGGCGGAUGCCUCCAAA [C8U C10U A14U G43A] cannot be ordered by “self-cleavage kobs at 2500 uM GlcN6P” value: less than 1e-05 s⁻¹ for the first, less than 1e-05 s⁻¹ for the second.

AUAAAAGUGCCAGAACUACAGAAAUGUAGUUGACGAGGAGGAGGAUUUUUGAAUUUUCGGCGGAUGCCUCCAAA [C8U U45A A48U C50U] and AUAAAAGCCCCAGAACUACAGAAAUGUAGUUGACGACGAGGAGGUUUAUCGAAUUUUCGGCGGAUGCCUGCAAA [G9C G37C C70G] cannot be ordered by “self-cleavage kobs at 2500 uM GlcN6P” value: less than 1e-05 s⁻¹ for the first, less than 1e-05 s⁻¹ for the second.

AUAAAAGCACCAGAACUACAGAAAUGUAGUUGACGAGGAGGAGGUUUAUCUCAUUUUCGGCGGAUGCCUCCAAA [G9A G51U A52C] and AUAAAAGCACCAGAACUACAGAAAUGUAGUUGACUAGGAGGAGGUUAAUCGAAUUUUCGGCGGAUGCCUUCAAA [G9A G35U U47A C70U] cannot be ordered by “self-cleavage kobs at 2500 uM GlcN6P” value: less than 1e-05 s⁻¹ for the first, less than 1e-05 s⁻¹ for the second.

Variants of: B1
Assay: self-cleavage kobs at 10000 uM GlcN6P; higher = faster cleavage; RNA array
Conditions: with glucosamine-6-phosphate
Procedure, shortened: as §1

With AUAAAAGUGCCAGAACUACAGAAAUGUAGUUGACGAGGAGGAGGUUGAUCGAAUUUUCGGCGGAUGCCUCCAAA [C8U U47G] the “self-cleavage kobs at 10000 uM GlcN6P” value was less than 1e-05 s⁻¹.

Reference: the supplement of paper PMC7125110
